In doi:10.1101/2023.05.30.542914 (bioRxiv, 2023):

T1: COPB2_(1-304), N-terminal WD-repeat domain of the COPB2 coatomer subunit (S. cerevisiae, UniProt P41811 1-304)
T1 sequence: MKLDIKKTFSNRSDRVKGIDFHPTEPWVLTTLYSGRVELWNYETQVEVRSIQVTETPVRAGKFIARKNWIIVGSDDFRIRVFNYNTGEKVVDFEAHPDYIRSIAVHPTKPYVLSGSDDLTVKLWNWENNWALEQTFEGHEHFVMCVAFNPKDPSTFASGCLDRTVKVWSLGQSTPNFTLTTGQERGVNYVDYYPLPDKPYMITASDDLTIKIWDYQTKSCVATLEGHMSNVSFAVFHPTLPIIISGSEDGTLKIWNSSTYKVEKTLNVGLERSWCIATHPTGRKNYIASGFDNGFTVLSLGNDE

B1: Exosome Binding Peptide (EBP) of Wnt7a, 18 aa polypeptide (240-257) (peptide)
peptide: PVRASRNKRPTFLKIKKP
B2: Wnt_(252-257) peptide (LKIKKP), C-terminal half of the EBP (peptide)
peptide: LKIKKP

Molecular target: T1, COPB2_(1-304), N-terminal WD-repeat …
Assay: ITC

| Binder | Kd [µM] |
| --- | --- |
| B1 | 11.6 |
| B2 | 37.2 |
